Values quoted from earlier work as cited in publication PMC5250575.

Molecular target: Kv1.3 (Homo sapiens) (UniProt P22001)
UniProt P22001, sequence (P22001 whole entry): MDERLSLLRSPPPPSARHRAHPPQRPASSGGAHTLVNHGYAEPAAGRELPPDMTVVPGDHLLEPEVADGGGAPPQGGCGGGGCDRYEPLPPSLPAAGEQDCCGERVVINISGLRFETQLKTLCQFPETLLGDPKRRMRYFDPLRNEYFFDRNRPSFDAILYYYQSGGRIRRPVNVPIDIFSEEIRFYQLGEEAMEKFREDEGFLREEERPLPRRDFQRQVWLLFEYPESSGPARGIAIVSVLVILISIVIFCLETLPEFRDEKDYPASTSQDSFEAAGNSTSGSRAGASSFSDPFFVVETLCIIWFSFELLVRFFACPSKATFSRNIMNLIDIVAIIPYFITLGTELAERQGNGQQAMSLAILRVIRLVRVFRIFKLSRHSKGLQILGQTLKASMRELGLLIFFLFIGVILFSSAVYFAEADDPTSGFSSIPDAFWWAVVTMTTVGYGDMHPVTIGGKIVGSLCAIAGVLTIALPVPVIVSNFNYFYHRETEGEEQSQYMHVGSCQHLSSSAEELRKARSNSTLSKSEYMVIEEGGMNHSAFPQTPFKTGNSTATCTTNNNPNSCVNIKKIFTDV

Question: Which Kd does the source give for Margatoxin (from UniProt P40755) here?
Answer: Its Kd is 0.0117 nM.
